Measurements taken from the supplement of paper PMC10126150.
± gives the standard deviation of the averaged measurements.

The sequences below were run on ATP (assay: switch fluorescence ratio, 500 uM ATP over buffer (Cy3 cluster intensity, sum of 5 cycles each) (fold (ratio)); higher = stronger signal-on switching upon ATP binding; sequences stand for … in TCGTCGGCAGCGTCAGATGTGTATAAGAGACAGTTTTTTTTTTTTTTTTTTTTTTTTT…TC). Details: aptamer strand: ATP DNA aptamer (quencher-CACCTGGGGGAGTATTGCGGAGGAAGG + anchor), 100 nM annealed; ATP concentration: 500 uM.
Method in brief: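 Clusters carrying Cy3-labelled switching strands on a modified Illumina MiSeq flow-cell were annealed to 100 nM quencher-labelled ATP aptamer and imaged in selection buffer. They were imaged again after 15 min with 500 uM ATP at 22 °C, over five buffer/ATP cycles with NaOH stripping and re-annealing in between. For each cluster, the fluorescence ratio is the summed Cy3 intensity of the target cycles divided by that of the buffer cycles, averaged per switch-domain sequence. Clusters outside 100-1000 RFU were left out.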
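Also: ATP exposure 15 min at 22 °C before imaging.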

Sequence | switch fluorescence ratio
TTGGGCTAGG | 1 ± 0.0054
TTTTCAGAGT | 1 ± 0.022
AACTTTGCAG | 1.016 ± 0.0052
GGCTTGGGGA | 1.01 ± 0.036
GATATTGCGA | 1.02 ± 0.035
AGGATTAGGG | 1 ± 0.033
TGAAGGCCTT | 0.9953 ± 0.0011
ATCGCAGATT | 1.03 ± 0.019
TAATTTAAAG | 1 ± 0.041
ATTCTGGTGG | 1.01 ± 0.046
CGTGACGGGG | 0.978 ± 0.043
GGCAGAAAAT | 1.01 ± 0.032
ACTTAGCAGG | 1.08 ± 0.013
GTAAGAAAGA | 1.02 ± 0.015
TTGTTAAATT | 0.98 ± 0.018
TTCGTATCAT | 1.049 ± 0.0097
TGTAGGACGG | 1.09 ± 0.094
TTGACATGC | 1.01 ± 0.044
CTGCTCGTAA | 1.99 ± 0.18
CGTGTTTTTG | 0.986 ± 0.02
CGCTTTTCTT | 1.01 ± 0.0035
ATTGGGGCTT | 1.01 ± 0.018
CCGGGAGCAG | 1.95 ± 0.61
CGTATTTTGC | 1.03 ± 0.066
AATCATTATT | 1.01 ± 0.017

Sequence | switch fluorescence ratio
GGATTGTGAG | 0.987 ± 0.042
GTCTACATTG | 0.997 ± 0.01
TATGGAGGTT | 0.969 ± 0.0074
GAGTCTAGCG | 1.02 ± 0.064
AATATTGTCT | 0.96 ± 0.013
AAAAAGGTTC | 0.991 ± 0.017
ATTCATAGGT | 0.992 ± 0.014
TAACTGTGAT | 0.988 ± 0.025
CGGAAAGCG | 1 ± 0.026
ATTAGTGTCA | 1 ± 0.035
CTTGTTGTAT | 1.01 ± 0.02
TTTTTTATCT | 1.05 ± 0.07
TGCCGGGGTT | 1.1 ± 0.2
GGGCCCTTTT | 0.976 ± 0.019
CAGAGGGGTC | 0.999 ± 0.022
GGGGTTTAGT | 1.01 ± 0.022
TTCGATCCGT | 1.07 ± 0.029
TTTCATTCGG | 1.06 ± 0.13
TTAGCATCTA | 0.999 ± 0.018
TCATGTACCG | 1.05 ± 0.044
AGAATTACTT | 1.001 ± 0.0092
TTTCACTATT | 1.01 ± 0.026
CTAGGTTCTG | 1.015 ± 0.0043
GCGGGTTGGG | 0.984 ± 0.047
TCGTTATGTG | 0.9829 ± 0.0085

Sequence | switch fluorescence ratio
AGGGGTGTTG | 0.991 ± 0.032
AGGATGGGCG | 0.928 ± 0.039
ATAAACTAGA | 1.01 ± 0.019
TTTTGTGTTT | 0.997 ± 0.028
TTGAAGAGG | 1.02 ± 0.035
AGGAGGCCAG | 0.969 ± 0.05
GCGTTTTCGT | 0.972 ± 0.013
TGGTACATCA | 0.973 ± 0.054
TTTTAACTCT | 1.05 ± 0.015
AGGTAAAGTA | 0.915 ± 0.025
GTTTGATCTG | 0.959 ± 0.026
AATTTTAATT | 1 ± 0.027
AAGGCCAATA | 1.05 ± 0.033
TTGAGGGGGG | 1.01 ± 0.048
ATATACAGGG | 1.06 ± 0.024
TTGAATGTTT | 0.992 ± 0.059
AGTTGGACGC | 1.07 ± 0.021
CCAAATTTAA | 1.03 ± 0.01
TTGCTAGTTG | 0.994 ± 0.036
GGGGTGTTGT | 1 ± 0.04
ACTTTTGCGG | 1.021 ± 0.0092
TTGAGTTAAA | 0.991 ± 0.037
TCTGGAGTT | 1.077 ± 0.005
CGCCCGCTGT | 1.72 ± 0.65
TCGGGTTGG | 1.03 ± 0.02

Sequence | switch fluorescence ratio
TGGAACTTAT | 0.997 ± 0.056
GTTGTAGAGT | 1.03 ± 0.032
TTAGTTTAGG | 0.9824 ± 0.0096
TAAAACCTAA | 1.12 ± 0.25
GGGGTAGCGA | 0.992 ± 0.051
TACAGTGGAG | 1.011 ± 0.0044
CTAGGCCGGG | 0.98 ± 0.025
GACACGGGCG | 1.044 ± 0.0035
CGGTAGGATT | 1.04 ± 0.014
AGACCCTTTT | 0.994 ± 0.037
CTAGGATCTA | 0.996 ± 0.062
TCCGTTGGGG | 1.05 ± 0.15
CACTAACCCT | 1.148 ± 0.0044
TTTGTTTTC | 1.02 ± 0.018
CGGACGTTTT | 1.17 ± 0.13
GGGGAAACGG | 1.06 ± 0.085
GACGGTCATG | 0.995 ± 0.018
TCTTATAAAC | 1.02 ± 0.023
AAACTTAATG | 1.05 ± 0.061
TTTTTTTATT | 1 ± 0.03
GGGGCGGATT | 0.984 ± 0.014
TTTAACTTAG | 1.016 ± 0.0032
AGAGGAGGTG | 1.02 ± 0.03
CCGATTACGC | 1.9 ± 0.13
CCCTATTTGC | 1.06 ± 0.02
